Experimental data reported in patent US20100249038A1, “ANTAGONISTS OF THE RECEPTOR FOR ADVANCED GLYCATION END-PRODUCTS (RAGE)” (Board of Regents, University of Texas System, priority 2007, published 2010).
Non-standard residues stand in square brackets, D forms with d.

Legend:
[1] = molecular target: T1, RAGE (sRAGE, extracellular domain) (Homo sapiens, UniProt Q15109); assay: ELISA of S100P binding to coated sRAGE; conditions: FIG. 10
T1 construct: the extracellular domain of RAGE peptide (sRAGE) was coated onto the ELISA plate
T1 sequence (Q15109 23-342 limits assumed): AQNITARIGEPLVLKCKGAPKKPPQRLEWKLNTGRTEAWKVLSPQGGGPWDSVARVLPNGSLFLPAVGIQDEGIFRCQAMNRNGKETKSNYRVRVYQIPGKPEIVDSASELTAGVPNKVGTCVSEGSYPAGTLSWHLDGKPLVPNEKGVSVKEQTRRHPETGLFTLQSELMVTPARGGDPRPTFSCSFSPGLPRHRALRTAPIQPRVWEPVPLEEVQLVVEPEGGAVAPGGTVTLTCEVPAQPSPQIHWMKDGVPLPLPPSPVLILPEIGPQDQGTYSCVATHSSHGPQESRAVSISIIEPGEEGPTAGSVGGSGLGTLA

[2] = system: NFκB activity in orthotopic MPanc-96 tumor; assay: NFκB-Luc activity in orthotopic MPanc-96 tumors after intraperitoneal injection; type: in vivo; conditions: 10 mg/kg b.wt intraperitoneally, measured after 4 hrs; p<0.05; FIG. 13
Experimental: MPanc-96 pancreatic cancer cells stably transfected with the NFκB-Luc reporter were injected orthotopically into the pancreas (1×10^6), and NFκB activity indicated by luciferase activity was measured after two weeks. S100P peptide antagonists (L-peptide and D-peptide) (10 mg/kg·b·wt) were injected intraperitoneally and NFκB activity in the orthotopic tumor was measured after 4 hrs.

[3] = system: S100P induced NFκB activity in pancreatic cancer MPanc-96 cells; assay: S100P induced NFκB-Luc reporter activity in MPanc-96 cells; type: cell-based; conditions: pre-treatment with peptide, FIG. 11
Text: MPanc-96 pancreatic cancer cells were stably transfected with a reporter plasmid, NFκB-Luc reporter, that provides a quantifiable photon output based on NFκB transcriptional activity. Extracellular addition of S100P to the cells induced the NFκB activity, which has previously been proven to be mediated through interaction with RAGE. Pre-treatment of the cells with S100P peptide antagonists (L-peptide and D-peptide), block S100P binding with its receptor RAGE, thus blocking S100P induced NFκB activity. Results of this assay are depicted in FIG. 11.

[4] = molecular target: T1, RAGE (sRAGE, extracellular domain); assay: ELISA of S100A4 binding to coated sRAGE; conditions: FIG. 10
[5] = molecular target: T1, RAGE (sRAGE, extracellular domain); assay: ELISA of amphoterin (HMGB1) binding to coated sRAGE; conditions: amphoterin 0-100 ng; FIG. 9; p<0.05 versus HMGB1 alone
Text: S100P peptide antagonists having the sequence Ac-ELKVLMEKEL-NH2 were made with standard L isomers of amino acids. This peptide antagonist comprises the amino acid sequence referred to as SEQ ID NO: 1 (ELKVLMEKEL), and in this instance the termini were blocked to prevent and/or reduce degradation. The inverse sequence, Ac-LEKEMLVKLE-NH2 was produced using D isomers of amino acids. This peptide antagonist comprises the amino acid sequence referred to as SEQ ID NO: 4 (LEKEMLVKLE), and in this instance the termini were blocked to prevent and/or reduce degradation. D isomers of amino acids, which are not naturally occurring, are thought to provide prolonged half-life in vivo. […] For this study, the extracellular domain of RAGE peptide (sRAGE) was coated onto the ELISA plate for 1 hour and non-specific binding sites were blocked with 1% BSA for 15 minutes. Amphoterin (0-100 ng) was added and incubated for 1 hour to allow its binding to its receptor and unbound molecules were removed by washing. Primary antibody against amphoterin and secondary antibody labeled with HRP and subsequently substrate for HRP was used to detect bound amphoterin with its receptor sRAGE. […] A control peptide of the same size had no effect. *=p<0.05 versus HMGB1 alone.
Inhibition of the binding of amphoterin to RAGE by antagonist peptides was tested using an in vitro ELISA based binding assay. […]

[6] = system: NFκB activity in subcutaneous MPanc-96 tumors; assay: NFκB-Luc activity in subcutaneous MPanc-96 tumors after intratumoral injection; type: in vivo, nude mice; conditions: 10 mg/kg b.wt intratumorally, measured after 4 hours; FIG. 12
Experimental: S100P peptide antagonists (L-peptide and D-peptide) block NFκB activity in vivo in subcutaneous tumors. MPanc-96 pancreatic cancer cells stably transfected with the NFκB-Luc reporter were injected into nude mice subcutaneously (1×10^6) and in vivo NFκB activity indicated by luciferase was measured using an IVIS-100 bioluminescence system. S100P peptide antagonists (L-peptide and D-peptide) (10 mg/kg·b·wt) were injected intratumorally and NFκB activity was measured after 4 hours. […] Thus, delivery of peptide antagonists by direct injection in subcutaneous tumors inhibits NFκB as an indirect read-out of RAGE.

[7] = system: NFκB activity stimulated by S100P in Panc-1 cells; assay: NFκB luciferase reporter activity stimulated by S100P in Panc-1 cells; type: cell-based; conditions: S100P 100 nM, peptide 1 μg/ml, 4 hours, FIG. 7B
Experimental: (§1) The effect of these novel peptide antagonists was evaluated on NFκB activity stimulated by S100P in Panc-1 cells. Panc-1 cells stably expressing the NFκB luciferase reporter gene were treated with or without S100P (100 nM) and either peptides of SEQ ID NOs: 1, 2 or 3 (1 μg/ml) for 4 hours. NFκB activity was estimated using luciferase quantitation. Numbers represent means±SE of triplicate determinations. * vs S100P alone (p<0.05); # vs control (p<0.05). Furthermore, administration of peptide of SEQ ID NO: 1 but not SEQ ID NO: 3 inhibited basal NFκB activity in S100P expressing BxPC3 cell tumors when administered in vivo as shown in FIG. 8. BxPC3 cells stably expressing an NFκB luciferase reporter were transplanted to scid mice and tumors were allowed to form. Animals were then injected i.p. with either peptide of SEQ ID NO: 1 (FIG. 8A) or SEQ ID NO: 3 (FIG. 8B). Imaging of luciferase activity was performed before and 24 h after peptide delivery. […] Numbers represent means±SE of triplicate determinations. *=p<0.05 vs time 0.

[8] = system: NFκB activity in S100P expressing BxPC3 cell tumors; assay: Basal NFκB luciferase activity in BxPC3 cell tumors in vivo after i.p. peptide; conditions: BxPC3 tumors in scid mice, 24 h after peptide delivery vs time 0, FIG. 8
Experimental: as §1

RAGE [9] = molecular target: T2, RAGE (Homo sapiens, UniProt Q15109); assay: ELISA-type assay of purified S100P binding to coated purified RAGE; set-up: Purified RAGE was coated into culture wells; conditions: peptides 50 μM; FIG. 7A; preliminary studies
Experimental: The binding of purified S100P to RAGE was evaluated using an ELISA technique. Purified RAGE was coated into culture wells, S100P was allowed to bind in the presence and absence of the peptides (50 μM), the dishes were extensively washed, and bound S100P was detected with a specific antibody coupled to HRP.
Target sequence in this assay (Q15109 23-342): as the sequence (Q15109 23-342 limits assumed) above

[10] = system: human umbilical vein endothelial cells (HUVECs); assay: HUVEC migration and alignment on Matrigel; type: cell-based; conditions: 4 hours, FIG. 4C
Experimental: (§2) S100P is secreted by pancreatic cancer cells and acts in an autocrine manner to stimulate their growth, survival, and invasiveness. Thus, S100P could also interact with receptors on cells within the microenvironment. The effects of S100P on human umbilical vein endothelial cells (HUVECs) in vitro were examined. […] HUVEC cells were cultured in the presence of either S100P or uninduced bacterial protein for 48 hours and the number of cells was estimated using MTS. […] Tumors formed with BxPC3 cells were harvested and frozen sections were stained for CD31 staining with the help of the Cancer Biology Histology core. Microvessels bearing CD31 are stained brown. […] HUVEC cells were plated on Matrigel and followed for 4 hours. After this time, control cells mostly remained individually isolated while a few cells began to migrate and align themselves and occasional sprouting was observed. At 4 hrs, cells treated with S100P had mostly migrated aligned themselves, sprouted, formed closed polygons and a complex mesh like structure had developed.

RAGE [11] = molecular target: T2, RAGE; assay: Co-immunoprecipitation of RAGE with S100P from pancreatic cancer cell lysates; type: binding; set-up: endogenous in cells; host or cells: MiaPaca2, BxPC3 (and Panc-1, printed 'Panel') cell lysates; conditions: S100P 100 ng, 16 hours at 4° C., FIG. 5
Experimental: As a direct indication of this interaction, lysates from Panel, and MiaPaca2 cells were incubated with S100P and S100P was then immunoprecipitated. RAGE was not present in the samples run without addition of S100P or S100P antibody (lanes A-C), but RAGE was present when both these reagents were included (lanes D-F). […] In these experiments MiaPaca2 (A-D) and BxPC3-1 (E) cell lysates were incubated in the presence of S100P (100 ng) for 16 hours at 4° C. before immunoprecipitation with anti-S100P monoclonal antibodies (IP-S100P) (+) or control IgG (−) and RAGE was identified in the immunoprecipitates by western blotting with an anti-RAGE antibody (IB-RAGE).
Target sequence in this assay (Q15109 23-404): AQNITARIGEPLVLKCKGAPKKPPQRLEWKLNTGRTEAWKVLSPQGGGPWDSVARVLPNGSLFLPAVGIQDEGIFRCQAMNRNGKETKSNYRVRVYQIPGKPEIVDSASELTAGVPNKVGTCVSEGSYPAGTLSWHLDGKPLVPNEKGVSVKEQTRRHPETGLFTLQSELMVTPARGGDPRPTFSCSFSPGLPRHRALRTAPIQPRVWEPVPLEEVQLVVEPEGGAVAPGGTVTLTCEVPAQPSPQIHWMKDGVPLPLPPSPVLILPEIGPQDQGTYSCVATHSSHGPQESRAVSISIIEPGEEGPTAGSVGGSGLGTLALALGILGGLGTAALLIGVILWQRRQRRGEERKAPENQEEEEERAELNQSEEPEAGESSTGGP

[12] = system: human umbilical vein endothelial cells (HUVECs); assay: HUVEC cell number after S100P treatment (MTS); type: cell-based; conditions: S100P treatment for 48 hrs vs uninduced bacterial protein; FIG. 4A
Experimental: as §2

Ac-ELKVLMEKEL-NH2 (listed as Homo sapiens) [L-peptide]
block of S100P binding to RAGE [1]: compete for binding of S100P | inhibition of cancer cell NFκB activity in orthotopic tumor [2]: significant inhibition of cancer cell NFκB activity | block of S100P induced NFκB activity [3]: block S100P induced NFκB activity | block of S100A4 binding to RAGE [4]: blocked | block of amphoterin (HMGB1) binding to RAGE [5]: competed with amphoterin and blocked its ability to bind with RAGE | reduction in NFκB activity in subcutaneous tumors [6]: strong reduction in NFκB activity

Ac-LEKEMLVKLE-NH2 (Ac-[dL][dE][dK][dE][dM][dL][dV][dK][dL][dE]-NH2; SMILES CSCC[C@@H](NC(=O)[C@@H](CCC(=O)O)NC(=O)[C@@H](CCCCN)NC(=O)[C@@H](CCC(=O)O)NC(=O)[C@@H](CC(C)C)NC(C)=O)C(=O)N[C@H](CC(C)C)C(=O)N[C@@H](C(=O)N[C@H](CCCCN)C(=O)N[C@H](CC(C)C)C(=O)N[C@H](CCC(=O)O)C(N)=O)C(C)C; listed as Homo sapiens) [D-peptide]
block of S100P binding to RAGE [1]: compete for binding of S100P | inhibition of cancer cell NFκB activity in orthotopic tumor [2]: significant inhibition of cancer cell NFκB activity | block of S100P induced NFκB activity [3]: block S100P induced NFκB activity | block of S100A4 binding to RAGE [4]: blocked | block of amphoterin (HMGB1) binding to RAGE [5]: competed with amphoterin and blocked its ability to bind with RAGE | reduction in NFκB activity in subcutaneous tumors [6]: strong reduction in NFκB activity

ELKVLMEKEL (listed as Homo sapiens) [SEQ ID NO: 1]
block of the activation of NFκB by S100P [7]: could also block the activation of NFκB by S100P | inhibition of basal NFκB activity in tumors in vivo [8]: caused a significant reduction in NFκB activity | block of the interaction of S100P with RAGE (RAGE [9]): could block the interaction of S100P with RAGE

GKDGDAVDKLLKD (listed as Homo sapiens) [SEQ ID NO: 3, b142 prints …]
block of the activation of NFκB by S100P [7]: could also block the activation of NFκB by S100P | inhibition of basal NFκB activity in tumors in vivo [8]: did not | block of the interaction of S100P with RAGE (RAGE [9]): could block the interaction of S100P with RAGE

KELPGFLQSGKDKD (listed as Homo sapiens) [SEQ ID NO: 2]
block of the activation of NFκB by S100P [7]: not | block of the interaction of S100P with RAGE (RAGE [9]): not

B1: S100P: S100 family calcium-binding protein, RAGE ligand, added exogenously as purified protein (protein, UniProt P25815 1-95, looked up)
Protein S100-P: MTELETAMGMIIDVFSRYSGSEGSTQTLTKGELKVLMEKELPGFLQSGKDKDAVDKLLKDLDANGDAQVDFSEFIVFVAAITSACHKYFEKAGLK
endothelial cell migration and alignment [10]: increased endothelial cell migration and alignment | direct interaction with RAGE (RAGE in S100P immunoprecipitates) (RAGE [11]): able to interact directly with RAGE | HUVEC cell numbers [12]: significant increase in HUVEC cell numbers
